Experimental data published in the Immune Epitope Database (IEDB).
pKd: −log10 of the molar value.

Key:
HLA-B*18:01 [1] = experiment: IEDB peptide-MHC binding, purified MHC/competitive/radioactivity; filed as Kd, often an IC50 or EC50 that approximates it; ≥ and ≤ were set here for values at or beyond the usual limits of such assays
HLA-B*44:02 [2] = experiment: as above
HLA-B*40:02 = experiment: as above
HLA-B*44:03 = experiment: as above
HLA-B*40:01 [3] = experiment: as above
HLA-B*45:01 = experiment: as above
HLA-B*15:42 = experiment: IEDB peptide-MHC binding, purified MHC/competitive/fluorescence; filed as Kd, often an IC50 or EC50 that approximates it; ≥ and ≤ were set here for values at or beyond the usual limits of such assays; settings: source organism: Human herpesvirus 4 strain B95-8
HLA-B*83:01 = experiment: as above; settings: source organism: Human herpesvirus 4 strain B95-8
HLA-B*45:06 = experiment: as above; settings: source organism: Human herpesvirus 4 strain B95-8
HLA-B*18:01 [4] = experiment: IEDB peptide-MHC binding, purified MHC/direct/fluorescence; filed as Kd, often an IC50 or EC50 that approximates it; ≥ and ≤ were set here for values at or beyond the usual limits of such assays
HLA-B*40:01 [5] = experiment: as above; settings: source organism: West Nile virus
HLA-A*26:01 = experiment: IEDB peptide-MHC binding, purified MHC/competitive/fluorescence; filed as Kd, often an IC50 or EC50 that approximates it; ≥ and ≤ were set here for values at or beyond the usual limits of such assays; settings: source organism: Bacillus anthracis str. A0488
HLA-B*51:01 = experiment: as above
HLA-B*44:02 [6] = experiment: IEDB peptide-MHC binding, purified MHC/direct/fluorescence; filed as Kd, often an IC50 or EC50 that approximates it; ≥ and ≤ were set here for values at or beyond the usual limits of such assays; settings: source organism: Dengue virus
HLA-B*15:01 = experiment: IEDB peptide-MHC binding, purified MHC/competitive/fluorescence; filed as Kd, often an IC50 or EC50 that approximates it; ≥ and ≤ were set here for values at or beyond the usual limits of such assays; settings: source organism: Bacillus anthracis str. A2012
HLA-A*24:03 = experiment: IEDB peptide-MHC binding, purified MHC/direct/fluorescence; filed as Kd, often an IC50 or EC50 that approximates it; ≥ and ≤ were set here for values at or beyond the usual limits of such assays; settings: source organism: Entamoeba histolytica
HLA-B*46:01 = experiment: IEDB peptide-MHC binding, purified MHC/competitive/fluorescence; filed as Kd, often an IC50 or EC50 that approximates it; ≥ and ≤ were set here for values at or beyond the usual limits of such assays; settings: source organism: Shigella flexneri 5 str. 8401
[7] = source organism: SARS coronavirus Tor2
[8] = source organism: Mammarenavirus juninense
[9] = source organism: Mammarenavirus lassaense
[10] = source organism: West Nile virus
[11] = source organism: Mammarenavirus brazilense
[12] = source organism: Lymphocytic choriomeningitis virus (strain Armstrong)

With ADYSVLYNST as the sequence, how does the pKd (HLA-B*18:01 [1]; [7]) read?
Its pKd is no more than 4.15.

And the pKd (HLA-B*44:02 [2]; [7])?
Its pKd is 5.71.

And the pKd (HLA-B*40:02; [7])?
The pKd was no more than 4.52.

What about the pKd (HLA-B*44:03; [7]) of the same sequence?
Its pKd is no more than 4.34.

And the pKd (HLA-B*40:01 [3]; [7])?
The pKd was no more than 4.16.

And the pKd (HLA-B*45:01; [7])?
The pKd was 6.11.

What does the source list for CSDAFYPFY?
pKd (HLA-B*15:42): ≤ 5.30; pKd (HLA-B*83:01): ≤ 5.30; pKd (HLA-B*45:06): ≤ 5.30

How did the pKd (HLA-B*18:01 [4]; source organism: Burkholderia ambifaria AMMD) turn out when DELPFVAPV was run?
Its pKd is 9.22.

With EDIDSVETL as the sequence, how does the pKd (HLA-B*18:01 [1]; [8]) read?
Its pKd is 4.84.

And the pKd (HLA-B*44:02 [2]; [8])?
The pKd was 4.91.

What about the pKd (HLA-B*40:02; [8]) of the same sequence?
The pKd was 5.90.

What about the pKd (HLA-B*44:03; [8]) of the same sequence?
Its pKd is no more than 4.55.

And the pKd (HLA-B*40:01 [3]; [8])?
The pKd was 5.73.

And the pKd (HLA-B*45:01; [8])?
The pKd was no more than 4.61.

With EELITDVEFL as the sequence, how does the pKd (HLA-B*18:01 [1]; [9]) read?
The pKd was 4.72.

What about the pKd (HLA-B*44:02 [2]; [9]) of the same sequence?
Its pKd is 5.29.

And the pKd (HLA-B*40:02; [9])?
The pKd was 5.01.

And the pKd (HLA-B*44:03; [9])?
Its pKd is 5.20.

And the pKd (HLA-B*40:01 [3]; [9])?
The pKd was 5.51.

And the pKd (HLA-B*45:01; [9])?
The pKd was 4.75.

What does the source list for EERKNFLEL?
pKd (HLA-B*18:01 [4]; [10]): 7.32; pKd (HLA-B*40:01 [5]): ≤ 4.70

EGIYKLSSM was tested. Which pKd (HLA-A*26:01) did it give?
The pKd was 7.37.

EPYPPKGPV was tested. Which pKd (HLA-B*51:01; source organism: Vibrio vulnificus YJ016) did it give?
Its pKd is 6.08.

With FPSVRYQNI as the sequence, how does the pKd (HLA-B*51:01; source organism: Yersinia pestis KIM10+) read?
Its pKd is 5.99.

With GDRWFLNRFT as the sequence, how does the pKd (HLA-B*18:01 [1]; [7]) read?
Its pKd is no more than 4.15.

And the pKd (HLA-B*44:02 [2]; [7])?
The pKd was no more than 4.15.

What about the pKd (HLA-B*40:02; [7]) of the same sequence?
The pKd was no more than 4.15.

What about the pKd (HLA-B*44:03; [7]) of the same sequence?
The pKd was no more than 4.15.

What about the pKd (HLA-B*40:01 [3]; [7]) of the same sequence?
Its pKd is no more than 4.16.

What about the pKd (HLA-B*45:01; [7]) of the same sequence?
The pKd was no more than 4.15.

With GEDGCWYGM as the sequence, how does the pKd (HLA-B*18:01 [4]; source organism: Dengue virus) read?
The pKd was 5.90.

What about the pKd (HLA-B*44:02 [6]) of the same sequence?
The pKd was no more than 4.70.

With GEPKMTKAL as the sequence, how does the pKd (HLA-B*18:01 [1]; [9]) read?
Its pKd is no more than 4.11.

And the pKd (HLA-B*44:02 [2]; [9])?
The pKd was no more than 4.69.

And the pKd (HLA-B*40:02; [9])?
Its pKd is 6.75.

What about the pKd (HLA-B*44:03; [9]) of the same sequence?
The pKd was no more than 4.30.

And the pKd (HLA-B*40:01 [3]; [9])?
Its pKd is 5.75.

What about the pKd (HLA-B*45:01; [9]) of the same sequence?
The pKd was no more than 4.17.

HENKNATWCL was tested. Which pKd (HLA-B*18:01 [1]; [11]) did it give?
The pKd was 4.78.

And the pKd (HLA-B*44:02 [2]; [11])?
The pKd was 5.34.

What about the pKd (HLA-B*40:02; [11]) of the same sequence?
The pKd was 7.26.

What about the pKd (HLA-B*44:03; [11]) of the same sequence?
The pKd was 4.82.

What about the pKd (HLA-B*40:01 [3]; [11]) of the same sequence?
The pKd was 6.04.

What about the pKd (HLA-B*45:01; [11]) of the same sequence?
Its pKd is 5.30.

IAIEFKSRF was tested. Which pKd (HLA-B*15:01) did it give?
The pKd was 6.55.

With IEVALRTLLL as the sequence, how does the pKd (HLA-B*18:01 [1]; [12]) read?
Its pKd is 5.77.

And the pKd (HLA-B*44:02 [2]; [12])?
The pKd was 5.03.

What about the pKd (HLA-B*40:02; [12]) of the same sequence?
The pKd was 7.62.

What about the pKd (HLA-B*44:03; [12]) of the same sequence?
Its pKd is 5.74.

And the pKd (HLA-B*40:01 [3]; [12])?
The pKd was 5.89.

And the pKd (HLA-B*45:01; [12])?
Its pKd is no more than 4.15.

How did the pKd (HLA-B*51:01; source organism: Vibrio antiquarius) turn out when IPVEPAFQV was run?
The pKd was 6.59.

Which results are given for KETSYTTTI?
pKd (HLA-B*18:01 [1]; [7]): ≤ 4.11; pKd (HLA-B*44:02 [2]; [7]): 7.04; pKd (HLA-B*40:02; [7]): 7.22; pKd (HLA-B*44:03; [7]): 6.90; pKd (HLA-B*40:01 [3]; [7]): 7.68; pKd (HLA-B*45:01; [7]): 6.74

KHIKPIVEF was tested. Which pKd (HLA-A*24:03) did it give?
Its pKd is 7.15.

How did the pKd (HLA-B*46:01) turn out when LAMYHGQTY was run?
Its pKd is no more than 4.70.

With LEQWNLVIGF as the sequence, how does the pKd (HLA-B*18:01 [1]; [7]) read?
Its pKd is 6.81.

What about the pKd (HLA-B*44:02 [2]; [7]) of the same sequence?
The pKd was 7.79.

What about the pKd (HLA-B*40:02; [7]) of the same sequence?
The pKd was 6.25.

What about the pKd (HLA-B*44:03; [7]) of the same sequence?
Its pKd is 7.31.

What about the pKd (HLA-B*40:01 [3]; [7]) of the same sequence?
The pKd was 5.40.

What about the pKd (HLA-B*45:01; [7]) of the same sequence?
Its pKd is 5.40.

With MEEPAPAGF as the sequence, how does the pKd (HLA-B*18:01 [4]; [10]) read?
Its pKd is 7.70.

And the pKd (HLA-B*40:01 [5])?
The pKd was 5.59.

With NECAQVLSEM as the sequence, how does the pKd (HLA-B*18:01 [1]; [7]) read?
Its pKd is 6.75.

And the pKd (HLA-B*44:02 [2]; [7])?
Its pKd is 6.60.

And the pKd (HLA-B*40:02; [7])?
The pKd was 4.91.

What about the pKd (HLA-B*44:03; [7]) of the same sequence?
The pKd was 6.92.

And the pKd (HLA-B*40:01 [3]; [7])?
Its pKd is 6.10.

And the pKd (HLA-B*45:01; [7])?
The pKd was 5.31.

How did the pKd (HLA-B*18:01 [1]; [9]) turn out when NENPGGYCL was run?
Its pKd is 7.14.

What about the pKd (HLA-B*44:02 [2]; [9]) of the same sequence?
The pKd was 6.82.

What about the pKd (HLA-B*40:02; [9]) of the same sequence?
Its pKd is 6.56.

And the pKd (HLA-B*44:03; [9])?
The pKd was 6.59.

And the pKd (HLA-B*40:01 [3]; [9])?
Its pKd is 5.31.

What about the pKd (HLA-B*45:01; [9]) of the same sequence?
Its pKd is 6.75.
